Measurements as given in paper PMC11574045, “A cofactor-induced repressive type of transcription factor condensation can be induced by synthetic peptides to suppress tumorigenesis” (The EMBO Journal, 2024).

system: HEK293FT cells transfected with TF library; test: Screening of TF condensates based on fluorescent puncta; assay type: cell-based; settings: Figure 1B numerical data; TF library screen, one value per transcriptional factor
Outline: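 HEK293FT, PEI transfection of TF library, 60 h; ±glucose 12 h; 4% PFA fix, 0.05% Triton X-100 permeabilization, 5% BSA block; anti-Flag/anti-GAL4 overnight at 4 °C, Alexa 488 secondary 1 h; high-content imaging, 50 fields/well.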

| Molecule | Z score of condensed fraction |
| --- | --- |
| RFC1 (protein, UniProt P35251 1-1148, looked up) Replication factor C subunit 1: MDIRKFFGVIPSGKKLVSETVKKNEKTKSDEETLKAKKGIKEIKVNSSRKEDDFKQKQPSKKKRIIYDSDSESEETLQVKNAKKPPEKLPVSSKPGKISRQDPVTYISETDEEDDFMCKKAASKSKENGRSTNSHLGTSNMKKNEENTKTKNKPLSPIKLTPTSVLDYFGTGSVQRSNKKMVASKRKELSQNTDESGLNDEAIAKQLQLDEDAELERQLHEDEEFARTLAMLDEEPKTKKARKDTEAGETFSSVQANLSKAEKHKYPHKVKTAQVSDERKSYSPRKQSKYESSKESQQHSKSSADKIGEVSSPKASSKLAIMKRKEESSYKEIEPVASKRKENAIKLKGETKTPKKTKSSPAKKESVSPEDSEKKRTNYQAYRSYLNREGPKALGSKEIPKGAENCLEGLIFVITGVLESIERDEAKSLIERYGGKVTGNVSKKTNYLVMGRDSGQSKSDKAAALGTKIIDEDGLLNLIRTMPGKKSKYEIAVETEMKKESKLERTPQKNVQGKRKISPSKKESESKKSRPTSKRDSLAKTIKKETDVFWKSLDFKEQVAEETSGDSKARNLADDSSENKVENLLWVDKYKPTSLKTIIGQQGDQSCANKLLRWLRNWQKSSSEDKKHAAKFGKFSGKDDGSSFKAALLSGPPGVGKTTTASLVCQELGYSYVELNASDTRSKSSLKAIVAESLNNTSIKGFYSNGAASSVSTKHALIMDEVDGMAGNEDRGGIQELIGLIKHTKIPIICMCNDRNHPKIRSLVHYCFDLRFQRPRVEQIKGAMMSIAFKEGLKIPPPAMNEIILGANQDIRQVLHNLSMWCARSKALTYDQAKADSHRAKKDIKMGPFDVARKVFAAGEETAHMSLVDKSDLFFHDYSIAPLFVQENYIHVKPVAAGGDMKKHLMLLSRAADSICDGDLVDSQIRSKQNWSLLPAQAIYASVLPGELMRGYMTQFPTFPSWLGKHSSTGKHDRIVQDLALHMSLRTYSSKRTVNMDYLSLLRDALVQPLTSQGVDGVQDVVALMDTYYLMKEDFENIMEISSWGGKPSPFSKLDPKVKAAFTRAYNKEAHLTPYSLQAIKASRHSTSPSLDSEYNEELNEDDSQSDEKDQDAIETDAMIKKKTKSSKPSKPEKDKEPRKGKGKSSKK | 2.906 |
| RFX1 (protein, UniProt P22670 1-979, looked up) MHC class II regulatory …: MATQAYTELQAAPPPSQPPQAPPQAQPQPPPPPPPAAPQPPQPPTAAATPQPQYVTELQSPQPQAQPPGGQKQYVTELPAVPAPSQPTGAPTPSPAPQQYIVVTVSEGAMRASETVSEASPGSTASQTGVPTQVVQQVQGTQQRLLVQTSVQAKPGHVSPLQLTNIQVPQQALPTQRLVVQSAAPGSKGGQVSLTVHGTQQVHSPPEQSPVQANSSSSKTAGAPTGTVPQQLQVHGVQQSVPVTQERSVVQATPQAPKPGPVQPLTVQGLQPVHVAQEVQQLQQVPVPHVYSSQVQYVEGGDASYTASAIRSSTYSYPETPLYTQTASTSYYEAAGTATQVSTPATSQAVASSGSMPMYVSGSQVVASSTSTGAGASNSSGGGGSGGGGGGGGGGGGGGSGSTGGGGSGAGTYVIQGGYMLGSASQSYSHTTRASPATVQWLLDNYETAEGVSLPRSTLYCHYLLHCQEQKLEPVNAASFGKLIRSVFMGLRTRRLGTRGNSKYHYYGLRIKASSPLLRLMEDQQHMAMRGQPFSQKQRLKPIQKMEGMTNGVAVGQQPSTGLSDISAQVQQYQQFLDASRSLPDFTELDLQGKVLPEGVGPGDIKAFQVLYREHCEAIVDVMVNLQFTLVETLWKTFWRYNLSQPSEAPPLAVHDEAEKRLPKAILVLLSKFEPVLQWTKHCDNVLYQGLVEILIPDVLRPIPSALTQAIRNFAKSLESWLTHAMVNIPEEMLRVKVAAAGAFAQTLRRYTSLNHLAQAARAVLQNTAQINQMLSDLNRVDFANVQEQASWVCRCEDRVVQRLEQDFKVTLQQQNSLEQWAAWLDGVVSQVLKPYQGSAGFPKAAKLFLLKWSFYSSMVIRDLTLRSAASFGSFHLIRLLYDEYMYYLIEHRVAQAKGETPIAVMGEFANLATSLNPLDPDKDEEEEEEEESEDELPQDISLAAGGESPALGPETLEPPAKLARTDARGLFVQALPSS | -0.4637 |
| BATF2 (protein, UniProt Q8N1L9 1-274, looked up) Basic leucine zipper …: MHLCGGNGLLTQTDPKEQQRQLKKQKNRAAAQRSRQKHTDKADALHQQHESLEKDNLALRKEIQSLQAELAWWSRTLHVHERLCPMDCASCSAPGLLGCWDQAEGLLGPGPQGQHGCREQLELFQTPGSCYPAQPLSPGPQPHDSPSLLQCPLPSLSLGPAVVAEPPVQLSPSPLLFASHTGSSLQGSSSKLSALQPSLTAQTAPPQPLELEHPTRGKLGSSPDNPSSALGLARLQSREHKPALSAATWQGLVVDPSPHPLLAFPLLSSAQVHF | -1.083 |
| RFX4 (protein, UniProt Q33E94 1-735, looked up) Transcription factor RFX4: MHCGLLEEPDMDSTESWIERCLNESENKRYSSHTSLGNVSNDENEEKENNRASKPHSTPATLQWLEENYEIAEGVCIPRSALYMHYLDFCEKNDTQPVNAASFGKIIRQQFPQLTTRRLGTRGQSKYHYYGIAVKESSQYYDVMYSKKGAAWVSETGKKEVSKQTVAYSPRSKLGTLLPEFPNVKDLNLPASLPEEKVSTFIMMYRTHCQRILDTVIRANFDEVQSFLLHFWQGMPPHMLPVLGSSTVVNIVGVCDSILYKAISGVLMPTVLQALPDSLTQVIRKFAKQLDEWLKVALHDLPENLRNIKFELSRRFSQILRRQTSLNHLCQASRTVIHSADITFQMLEDWRNVDLNSITKQTLYTMEDSRDEHRKLITQLYQEFDHLLEEQSPIESYIEWLDTMVDRCVVKVAAKRQGSLKKVAQQFLLMWSCFGTRVIRDMTLHSAPSFGSFHLIHLMFDDYVLYLLESLHCQERANELMRAMKGEGSTAEVREEIILTEAAAPTPSPVPSFSPAKSATSVEVPPPSSPVSNPSPEYTGLSTTGAMQSYTWSLTYTVTTAAGSPAENSQQLPCMRNTHVPSSSVTHRIPVYPHREEHGYTGSYNYGSYGNQHPHPMQSQYPALPHDTAISGPLHYAPYHRSSAQYPFNSPTSRMEPCLMSSTPRLHPTPVTPRWPEVPSANTCYTSPSVHSARYGNSSDMYTPLTTRRNSEYEHMQHFPGFAYINGEASTGWAK | -0.3239 |
| RFXDC1 (protein, UniProt Q8HWS3 1-928, looked up) DNA-binding protein RFX6: MAKVPELEDTFLQAQPAPQLSPGIQEDCCVQLLGKGLLVYPEETVYLAAEGQPGGEQGGGEKGEDPELPGAVKSEMHLNNGNFSSEEEDADNHDSKTKAADQYLSQKKTITQIVKDKKKQTQLTLQWLEENYIVCEGVCLPRCILYAHYLDFCRKEKLEPACAATFGKTIRQKFPLLTTRRLGTRGHSKYHYYGIGIKESSAYYHSVYSGKGLTRFSGSKLKNEGGFTRKYSLSSKTGTLLPEFPSAQHLVYQGCISKDKVDTLIMMYKTHCQCILDNAINGNFEEIQHFLLHFWQGMPDHLLPLLENPVIIDIFCVCDSILYKVLTDVLIPATMQEMPESLLADIRNFAKNWEQWVVSSLENLPEALTDKKIPIVRRFVSSLKRQTSFLHLAQIARPALFDQHVVNSMVSDIERVDLNSIGSQALLTISGSTDTESGIYTEHDSITVFQELKDLLKKNATVEAFIEWLDTVVEQRVIKTSKQNGRSLKKRAQDFLLKWSFFGARVMHNLTLNNASSFGSFHLIRMLLDEYILLAMETQFNNDKEQELQNLLDKYMKNSDASKAAFTASPSSCFLANRNKGSMVSSDAVKNESHVETTYLPLPSSQPGGLGPALHQFPAGNTDNMPLTGQMELSQIAGHLMTPPISPAMASRGSVINQGPMAGRPPSVGPVLSAPSHCSTYPEPIYPTLPQANHDFYSTSSNYQTVFRAQPHSTSGLYPHHTEHGRCMAWTEQQLSRDFFSGSCAGSPYNSRPPSSYGPSLQAQDSHNMQFLNTGSFNFLSNTGAASCQGATLPPNSPNGYYGSNINYPESHRLGSMVNQHVSVISSIRSLPPYSDIHDPLNILDDSGRKQTSSFYTDTSSPVACRTPVLASSLQTPIPSSSSQCMYGTSNQYPAQETLDSHGTSSREMVSSLPPINTVFMGTAAGGT | 3.216 |
| RHOXF1 (protein, UniProt Q8NHV9 1-184, looked up) Rhox homeobox family member 1: MARSLVHDTVFYCLSVYQVKISPTPQLGAASSAEGHVGQGAPGLMGNMNPEGGVNHENGMNRDGGMIPEGGGGNQEPRQQPQPPPEEPAQAAMEGPQPENMQPRTRRTKFTLLQVEELESVFRHTQYPDVPTRRELAENLGVTEDKVRVWFKNKRARCRRHQRELMLANELRADPDDCVYIVVD | -0.9364 |
| RHOXF2 (protein, UniProt Q9BQY4 1-288, looked up) Rhox homeobox family member 2: MEPPDQCSQYMTSLLSPAVDDEKELQDMNAMVLSLTEEVKEEEEDAQPEPEQGTAAGEKLKSAGAQGGEEKDGGGEEKDGGGAGVPGHLWEGDLEGTSGSDGNVEDSDQSEKEPGQQYSRPQGAVGGLEPGNAQQPNVHAFTPLQLQELERIFQREQFPSEFLRRRLARSMNVTELAVQIWFENRRAKWRRHQRALMARNMLPFMAVGQPVMVTAAEAITAPLFISGMRDDYFWDHSHSSSLCFPMPPFPPPSLPLPLMLLPPMPPAGQAEFGPFPFVIVPSFTFPNV | 1.459 |
| R-LIM (protein, UniProt Q9NVW2 1-624, looked up) E3 ubiquitin-protein ligase …: MENSDSNDKGSGDQSAAQRRSQMDRLDREEAFYQFVNNLSEEDYRLMRDNNLLGTPGESTEEELLRRLQQIKEGPPPQNSDENRGGDSSDDVSNGDSIIDWLNSVRQTGNTTRSGQRGNQSWRAVSRTNPNSGDFRFSLEINVNRNNGSQNSENENEPSARRSSGENVENNSQRQVENPRSESTSARPSRSERNSTEALTEVPPTRGQRRARSRSPDHRRTRARAERSRSPLHPMSEIPRRSHHSISSQTFEHPLVNETEGSSRTRHHVTLRQQISGPELLSRGLFAASGTRNASQGAGSSDTAASGESTGSGQRPPTIVLDLQVRRVRPGEYRQRDSIASRTRSRSQTPNNTVTYESERGGFRRTFSRSERAGVRTYVSTIRIPIRRILNTGLSETTSVAIQTMLRQIMTGFGELSYFMYSDSDSEPTGSVSNRNMERAESRSGRGGSGGGSSSGSSSSSSSSSSSSSSSSSSSSPSSSSGGESSETSSDLFEGSNEGSSSSGSSGARREGRHRAPVTFDESGSLPFLSLAQFFLLNEDDDDQPRGLTKEQIDNLAMRSFGENDALKTCSVCITEYTEGNKLRKLPCSHEYHVHCIDRWLSENSTCPICRRAVLASGNRESVV | -0.6236 |
| RNF14 (protein, UniProt Q9UBS8 1-474, looked up) E3 ubiquitin-protein ligase …: MSSEDREAQEDELLALASIYDGDEFRKAESVQGGETRIYLDLPQNFKIFVSGNSNECLQNSGFEYTICFLPPLVLNFELPPDYPSSSPPSFTLSGKWLSPTQLSALCKHLDNLWEEHRGSVVLFAWMQFLKEETLAYLNIVSPFELKIGSQKKVQRRTAQASPNTELDFGGAAGSDVDQEEIVDERAVQDVESLSNLIQEILDFDQAQQIKCFNSKLFLCSICFCEKLGSECMYFLECRHVYCKACLKDYFEIQIRDGQVQCLNCPEPKCPSVATPGQVKELVEAELFARYDRLLLQSSLDLMADVVYCPRPCCQLPVMQEPGCTMGICSSCNFAFCTLCRLTYHGVSPCKVTAEKLMDLRNEYLQADEANKRLLDQRYGKRVIQKALEEMESKEWLEKNSKSCPCCGTPIEKLDGCNKMTCTGCMQYFCWICMGSLSRANPYKHFNDPGSPCFNRLFYAVDVDDDIWEDEVED | 0.4543 |
